Laboratory results from patent US20090215683A1 (ONCOTHERAPY SCIENCE, published 2009).

B1: CDCA1 319-367 deletion construct with C-terminal FLAG sequence (other)
chain: NLEDQIESDESELKKLKTEENSFKRLMIVKKEKLATAQFKINKKHEDVK
notes: Expressed by transfection in LC319 cells; not shown: C-terminal FLAG tag of the pCAGGS vector
B2: CDCA1 1-464 (full length), exogenous, expressed from pCAGGSn3Fc-CDCA1 in LC319 cells (other, not shown: small tags and cut ends)
chain: METLSFPRYNVAEIVIHIRNKILTGADGKNLTKNDLYPNPKPEVLHMIYMRALQIVYGIRLEHFYMMPVNSEVMYPHLMEGFLPFSNLVTHLDSFLPICRVNDFETADILCPKAKRTSRFLSGIINFIHFREACRETYMEFLWQYKSSADKMQQLNAAHQEALMKLERLDSVPVEEQEEFKQLSDGIQELQQSLNQDFHQKTIVLQEGNSQKKSNISEKTKRLNELKLLVVSLKEIQESLKTKIVDSPEKLKNYKEKMKDTVQKLKNARQEVVEKYEIYGDSVDCLPSCQLEVQLYQKKIQDLSDNREKLASILKESLNLEDQIESDESELKKLKTEENSFKRLMIVKKEKLATAQFKINKKHEDVKQYKRTVIEDCNKVQEKRGAVYERVTTINQEIQKIKLGIQQLKDAAEREKLKSQEIFLNLKTALEKYHDGIEKAAEDSYAKIDEKTAELKRKMFKMST
notes: It is treated as the same molecule here; also called exogenous CDCA1
B3: CDCA1 277-367 deletion construct with C-terminal FLAG sequence (other)
chain: EIYGDSVDCLPSCQLEVQLYQKKIQDLSDNREKLASILKESLNLEDQIESDESELKKLKTEENSFKRLMIVKKEKLATAQFKINKKHEDVK
notes: as for B1
B4: CDCA1 149-306 deletion construct with C-terminal FLAG sequence (other)
chain: ADKMQQLNAAHQEALMKLERLDSVPVEEQEEFKQLSDGIQELQQSLNQDFHQKTIVLQEGNSQKKSNISEKTKRLNELKLLVVSLKEIQESLKTKIVDSPEKLKNYKEKMKDTVQKLKNARQEVVEKYEIYGDSVDCLPSCQLEVQLYQKKIQDLSDN
notes: Expressed by transfection in LC319 cells; also called control; not shown: C-terminal FLAG tag of the pCAGGS vector
B5: CDCA1 200-464 deletion construct with C-terminal FLAG sequence (other)
chain: QKTIVLQEGNSQKKSNISEKTKRLNELKLLVVSLKEIQESLKTKIVDSPEKLKNYKEKMKDTVQKLKNARQEVVEKYEIYGDSVDCLPSCQLEVQLYQKKIQDLSDNREKLASILKESLNLEDQIESDESELKKLKTEENSFKRLMIVKKEKLATAQFKINKKHEDVKQYKRTVIEDCNKVQEKRGAVYERVTTINQEIQKIKLGIQQLKDAAEREKLKSQEIFLNLKTALEKYHDGIEKAAEDSYAKIDEKTAELKRKMFKMST
notes: Expressed by transfection in LC319 cells; also called dominant-negative fragment of CDCA1; not shown: C-terminal FLAG tag of the pCAGGS vector
B6: CDCA1 1-148 deletion construct with C-terminal FLAG sequence (other)
chain: METLSFPRYNVAEIVIHIRNKILTGADGKNLTKNDLYPNPKPEVLHMIYMRALQIVYGIRLEHFYMMPVNSEVMYPHLMEGFLPFSNLVTHLDSFLPICRVNDFETADILCPKAKRTSRFLSGIINFIHFREACRETYMEFLWQYKSS
notes: as for B1

How the values were obtained:
[1] = target: T1, kinetocore associated 2 (KNTC2), endogenous protein of LC319 lung-cancer cells (human, UniProt O14777 1-642); test: anti-Flag immunoprecipitation from transfected LC319 cells, immunoblot for KNTC2 (FIG. 2D)
T1 construct: Endogenous protein in lysates of the human lung-cancer cell line LC319; Seen as a 75-kDa band and identified by MALDI-TOF mass spectrometry; also called endogenous KNTC2
T1 sequence: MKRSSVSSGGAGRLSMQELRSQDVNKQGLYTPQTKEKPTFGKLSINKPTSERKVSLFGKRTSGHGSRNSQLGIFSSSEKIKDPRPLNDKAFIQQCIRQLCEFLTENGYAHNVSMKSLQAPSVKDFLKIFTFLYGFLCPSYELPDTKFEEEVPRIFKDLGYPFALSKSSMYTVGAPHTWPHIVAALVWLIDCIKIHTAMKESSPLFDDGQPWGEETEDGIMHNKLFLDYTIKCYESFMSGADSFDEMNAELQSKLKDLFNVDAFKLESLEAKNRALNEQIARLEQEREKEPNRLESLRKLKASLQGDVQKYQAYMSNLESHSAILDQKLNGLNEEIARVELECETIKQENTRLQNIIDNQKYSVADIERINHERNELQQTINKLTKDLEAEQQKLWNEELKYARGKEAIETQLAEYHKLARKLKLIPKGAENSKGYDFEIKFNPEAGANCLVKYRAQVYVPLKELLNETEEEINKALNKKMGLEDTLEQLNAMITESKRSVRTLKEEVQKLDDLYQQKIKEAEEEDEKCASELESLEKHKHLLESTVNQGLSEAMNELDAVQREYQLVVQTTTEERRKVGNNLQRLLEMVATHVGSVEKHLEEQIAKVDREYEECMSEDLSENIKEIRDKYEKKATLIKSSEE
Method: (§1) Cell extracts from lung-cancer cell line LC319, transfected with plasmids expressing eleven deletion-constructs of CDCA1 were pre-cleared by incubation at 4° C. for 1 hour with 100 μl of protein G-agarose beads in final volumes of 2 ml of immunoprecipitation buffer (0.5% NP-40, 50 mM Tris-HCl, 150 mM NaCl) in the presence of proteinase inhibitor. After centrifugation at 1,000 rpm for 5 min at 4° C., the supernatants were incubated at 4° C. with anti-FLAG M2 agarose for 2 hours. After the beads were collected from each sample by centrifugation at 5,000 rpm for 2 min and washed six times with 1 ml of immunoprecipitation buffer, the washed beads were re-suspended in 50 μl of Laemmli sample buffer and boiled for 5 min before the proteins were separated on 10% SDS PAGE gels. Immunoblot was performed using KNTC2 polyclonal antibody (Abcom, Inc.) and anti-FLAG M2 monoclonal antibody respectively (Sigma-Aldrich Co.).

[2] = target: T1, kinetocore associated 2 (KNTC2), …; test: immunoprecipitation with KNTC2 polyclonal antibody from LC319 cells transfected with pCAGGSn3Fc-CDCA1, anti-FLAG M2 immunoblot
Method: (f) Identification of CDCA1-associated Proteins: Cell extracts from lung-cancer cell line LC319 were pre-cleared by incubation at 4° C. for 1 hour with 50 μl of protein A and G-agarose beads, in final volumes of 2 ml of immunoprecipitation buffer (0.5% NP-40, 50 mM Tris-HCl, 150 mM NaCl) in the presence of proteinase inhibitor. After centrifugation at 1,000 rpm for 5 min at 4° C., the supernatants were incubated at 4° C. with anti-CDCA1 polyclonal antibody, anti-KNTC2 polyclonal antibody, or normal rabbit IgG for 2 hours. After incubation at 4° C. for 1 hour with 50 μl of protein A and G-agarose beads, the beads were collected from each sample by centrifugation at 5,000 rpm for 2 min and washed six times with 1 ml of immunoprecipitation buffer, and the washed beads were re-suspended in 50 μl of Laemmli sample buffer and boiled for 5 min before the proteins were separated on 5-10% SDS PAGE gels (BIO RAD). After electrophoresis, the gels were stained with silver. […] The nucleotide sequence of each cDNA clone was determined with an ABI Prism 3700 DNA sequencer (Applied Biosystems, Foster City, Calif.), using T3, T7, or synthetic oligonucleotide primers according to the manufacturer's instructions. […]

[3] = target: T1, kinetocore associated 2 (KNTC2), …; test: anti-Flag immunoprecipitation from transfected LC319 cells, immunoblot for KNTC2 (FIG. 2C)
Method: as §1

[4] = target: T1, kinetocore associated 2 (KNTC2), …; test: anti-Flag immunoprecipitation (FIG. 2C); also immunoprecipitation with anti-KNTC2 polyclonal antibody (FIG. 5A)
Method: as §1

Binder | binding result [1] | binding result [3] | also measured
B1 | no binding | – | –
B2 | – | – | binding result [2]: binds
B3 | no binding | – | –
B4 | – | no binding | –
B5 | – | – | binding result [4]: binds
B6 | – | no binding | –
